Assay [1] concerns the target M2 protein expressed on A/HK/1/68 infected MDCK cells (influenza A virus A/HK/1/68). The assay is described as follows: cell-based ELISA, half-saturating antibody concentration. The conditions noted are these: remark: other sources report otherwise. On the technique in general: ELISA stands for enzyme-linked immunosorbent assay.
Assay [2] addresses M2 truncated peptide M15 (influenza A virus). The assay is described as follows: peptide ELISA, antibody at 10 ug/ml.
In assay [3] the target is M2 truncated peptide CM15 (influenza A virus). The assay is described as follows: peptide ELISA, antibody at 10 ug/ml.
Assay [4] addresses M2 truncated peptide NM11 (influenza A virus). The assay is described as follows: peptide ELISA, antibody at 10 ug/ml.
The target of assay [5] is M2 truncated peptide M12 (influenza A virus). Briefly: peptide ELISA, antibody at 10 ug/ml.
The target of assay [6] is M2 peptide (extracellular 23-amino-acid peptide of influenza virus matrix M2 protein) (influenza A virus). Briefly: peptide ELISA, antibody at 10 ug/ml.
The target in assay [7] is M2 truncated peptide NM12 (N-terminal 12-amino acid peptide) (influenza A virus). Briefly: peptide ELISA, antibody at 10 ug/ml.
The target of assay [8] is M2 truncated peptide NN15 (influenza A virus). Briefly: peptide ELISA, antibody at 10 ug/ml.
The target of assay [9] is M2 truncated peptide NM7 (influenza A virus). Briefly: peptide ELISA, antibody at 10 ug/ml.
The target of assay [10] is M2 truncated peptide CM17 (influenza A virus). The assay is described as follows: peptide ELISA, antibody at 10 ug/ml.
Assay [11] has as its target M2 truncated peptide CM14 (influenza A virus). Briefly: peptide ELISA, antibody at 10 ug/ml.
The target in assay [12] is M2 truncated peptide NM8 (influenza A virus). Briefly: peptide ELISA, antibody at 10 ug/ml.
In assay [13] the target is M2 truncated peptide CM12 (influenza A virus). Briefly: peptide ELISA, antibody at 10 ug/ml.
Assay [14] concerns the target M2 truncated peptide NN9 (influenza A virus). The assay is described as follows: peptide ELISA, antibody at 10 ug/ml.
Assay [15] deals with M2 truncated peptide NM17 (influenza A virus). Briefly: peptide ELISA, antibody at 10 ug/ml.
In assay [16] the target is M2 truncated peptide NM13 (influenza A virus). Briefly: peptide ELISA, antibody at 10 ug/ml.
Assay [17] deals with M2 truncated peptide CM13 (influenza A virus). The assay is described as follows: peptide ELISA, antibody at 10 ug/ml.
Assay [18] deals with M2 truncated peptide M16 (influenza A virus). The assay is described as follows: peptide ELISA, antibody at 10 ug/ml.
Assay [19] addresses M2 truncated peptide NM16 (influenza A virus). Briefly: peptide ELISA, antibody at 10 ug/ml.
In assay [20] the target is M2 truncated peptide NM10 (influenza A virus). Briefly: peptide ELISA, antibody at 10 ug/ml.
In assay [21] the target is M2 truncated peptide NM14 (influenza A virus). Briefly: peptide ELISA, antibody at 10 ug/ml.
In assay [22] the target is M2 truncated peptide CM16 (influenza A virus). Briefly: peptide ELISA, antibody at 10 ug/ml.

As a reminder, the Kd is the equilibrium constant for the complex coming apart. A low value points to tighter binding.

B1: human anti-M2 monoclonal antibody L66 (antibody)
chain 1: EVQLVESGGGVVRPGGSLRLSCAASGFTFDDYGMSWVRQAPGKGLEWVSGINWNGGSTGYADSVKGRFTISRDNAKNSLYLQMNSLRAEDTALYYCARDRVTMVRGVIMDYYGMDVWGQGTTVTVSS
chain 2: QTVVTQEPSLTVSPRGTVTLTCSSSTGAVTSGYYPGWFQLKPGQAPMSLIYSARKKHSWTPARFSGSLLGGKAALTLSGVQPEDEAEYYCLLYYGGAYVFGTGTKVTVLG
Take B1: the Kd in [1] stood at 0.531 nM. The ELISA (OD450) in assay [2] amounted to 0.2 OD450; in assay [3], 0.13 OD450; in assay [4] it was 0.17 OD450; in assay [5], 0.19 OD450; in assay [6] it was 1.04 OD450; in assay [7], 0.12 OD450. Also, the ELISA (OD450) is 0.28 OD450 in assay [8]; 0.18 OD450 in assay [9]; 0.14 OD450 in assay [10]; 0.13 OD450 in [11]; 0.18 OD450 in assay [12]; 0.16 OD450 in assay [13]. For the same molecule, the ELISA (OD450) was found to be 0.16 OD450 in assay [14]; 1.92 OD450 in assay [15]; 0.17 OD450 in [16]; 0.15 OD450 in assay [17]; 0.27 OD450 in assay [18]; 2.52 OD450 in assay [19]. The ELISA (OD450) in assay [20] was found to be 0.16 OD450; in assay [21], 0.16 OD450; in assay [22] it was 0.13 OD450.

B2: human anti-M2 monoclonal antibody C40G1 (antibody)
chain 1: QLQLQESGPGLVKPSETLSLTCTVSGGSISSSFYYCGWIRQPPGKGLEWIGSIYYRGSTYYNPSLKSRVTISVDTSKNQFSLKLSSVTAADTAVYYCARRVTMVRGVKGDYFDYWGQGTLVTVSS
chain 2: DIQMTQSPSSLSASVGDRVTITCRASQGISSWLAWYQQKPEKVPKSLIYAASSLQSGVPSRFSGSGSGTDFTLTISSLQPEDFATYYCQQYNYYPLTFGGGTKVEIKR
Regarding B2, in assay [1], the Kd came to 0.542 nM. The ELISA (OD450) in [2] worked out at 1.93 OD450; in assay [3], 0.1 OD450; in assay [4], 0.15 OD450; in assay [5], 1.95 OD450; in [6] it was 2.38 OD450; in assay [7], 0.16 OD450. For the same molecule, the ELISA (OD450) in assay [8] was 2.67 OD450; in assay [9] it was 0.09 OD450; in [10] it was 3.01 OD450; in [11], 0.1 OD450; in assay [12], 0.1 OD450; in assay [13] it was 0.11 OD450. Moreover, the ELISA (OD450) in [14] came out at 0.13 OD450; in assay [15], 2.18 OD450; in assay [16], 1.82 OD450; in assay [17], 0.11 OD450; in assay [18], 1.75 OD450; in assay [19], 2.17 OD450. The ELISA (OD450) in assay [20] amounted to 0.11 OD450; in assay [21] it was 1.93 OD450; in assay [22] it was 1.41 OD450.

The record behind these values is patent US20090196872A1.
